In patent publication CN110903386A (INST MILITARY MEDICINE ACADEMY MILITARY SCIENCES PLA, dated 2020):

Target: 基孔肯雅病毒E2蛋白 (基孔肯雅病毒标准株S27, UniProt Q8JUX5 326-748)
Experiment: cell-based or functional assay

基孔肯雅病毒E2蛋白, sequence (Q8JUX5 326-748 limits assumed): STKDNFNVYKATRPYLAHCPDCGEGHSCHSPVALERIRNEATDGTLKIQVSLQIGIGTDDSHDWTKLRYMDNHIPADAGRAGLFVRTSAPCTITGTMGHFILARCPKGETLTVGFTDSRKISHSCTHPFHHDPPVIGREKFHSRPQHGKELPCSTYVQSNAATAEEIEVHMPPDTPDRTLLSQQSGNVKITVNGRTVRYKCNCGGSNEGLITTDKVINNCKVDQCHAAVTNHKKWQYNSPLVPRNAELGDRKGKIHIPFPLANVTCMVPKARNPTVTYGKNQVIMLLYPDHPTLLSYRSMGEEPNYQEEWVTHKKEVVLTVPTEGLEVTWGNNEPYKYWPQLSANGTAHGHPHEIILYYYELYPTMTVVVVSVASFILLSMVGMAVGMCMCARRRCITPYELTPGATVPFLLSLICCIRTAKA

B1: 抗基孔肯雅病毒全人源单克隆抗体8D1 (antibody, human IgG1, kappa, V domains shown)
VH: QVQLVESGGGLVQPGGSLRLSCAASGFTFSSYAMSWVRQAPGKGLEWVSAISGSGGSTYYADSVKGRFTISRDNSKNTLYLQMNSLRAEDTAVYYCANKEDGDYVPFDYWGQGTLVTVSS
VL: DIVMTQSPATLSASVGDRVTITCRASQSISSYLNWYQQKPGKAPKLLIYAASSLQSGVPSRFSGSGSGTDFTLTISSLQPEDFATYYCQQSYFFGPGTKVDIKR
IC50, Vero细胞中和实验 (结晶紫染色, 细胞活率): 0.12 µg/mL
